Article PMC4359974

Molecular target: Sulfolobus solfataricus heat shock 20.1 (Sulfolobus solfataricus P2)
Assay: SEC

stoichiometry N: 24 subunits
Substance: Sulfolobus solfataricus heat shock 20.1 (natural protein)
